In patent publication US7056694B1, “DNA encoding peripheral-type benzodiazipine receptor associated protein 7 and applications or methods of use” (Georgetown University, priority 1998, dated 2006):

Columns and labels:
MA-10 cells = assay: Steroid biosynthesis: hCG-stimulated progesterone production in transfected MA-10 cells; assay type: cell-based, mouse; conditions: pSVzeoPAP7 vs pSVzeo empty vector transfectants, hCG 50 ng/ml, dose and time dependent
Method: MA-10 cells were grown in modified Waymouth's MB752/1 medium containing 15% horse serum, as described previously (Papadopoulos, V. et al., 1990, J. Biol. Chem. 265, 3772–3779). Mouse C6 glioma and mouse Y1 adrenal cortical cells were cultured in DMEM and DMEM F12 repectively, with 10% fetal bovine serum. MA10 cells were transiently transfected by electroporation (El Hefnawy, T. et al., 1996, Mol. Cell Endocrinol. 119, 207–217). Each Genepulser cuvette (0.4 cm-gap, BioRad, Hercules, Calif.) contained 8×10^6 cells in 350 μl antibiotic-free complete Waymouth's growth medium (see above), plus 30 μg plasmids DNA in 50 μl of 0.1×TE. Cells in electroporation cuvettes were electro-shocked at 330 V and at a capacitance of 950 μFd generated from Genepulser (BioRad, Hercules, Calif.). The cells were kept immediately on ice for 10 min before plated into 96 well plates.
MA-10 cells were plated into 96-well plate at the density of 2.5×10^4/well for overnight. The cells were stimulated with 50 ng/ml hCG in 0.2 ml/well serum-free medium for 2 hours. The culture medium was collected and tested for progesterone production by RIA. The assay was carried out by using anti-progesterone antisera (ICN, Costa Mesa, Calif.), following the conditions recommended by the manufacturer. […] Radioimmunoassay data was analyzed using the software provided by Wallac (EG&G Wallac, Gaithersburg, Md.). […]

PBR = PBR (Mus musculus, UniProt P50637); assay: PK 11195 radioligand binding to PBR interacting with PAP20; conditions: PK11195 as a ligand
Method: ^3H-1-(2-chlorophenyl)-N-methyl-N-(1-methyl-propyl)-3-isoquinolinecarboxamide (PK 11195) (NEN, Boston, Mass.) binding studies were performed as we previously described (Papadopoulos, V. et al., 1990, supra; Garnier, M. et al., 1994, Molecular Pharmacology 45, 201–211). The dissociation constant (Kd) and the number of binding sites (Bmax) were determined by Scatchard plot analysis of the data using the LIGAND program (Munson, P. J. and Rodbard, D., 1980, Anal. Biochem. 107, 220–239).

[1] = molecular target: T1, GAL4 (1-147)-PBR fusion (plasmid pGBT9+PBR), mouse peripheral-type benzodiazepine receptor as two-hybrid bait (mouse, UniProt P04386 1-147; P50637 1-169); assay: yeast two-hybrid, His3 reporter (histidine prototrophy), second-round transformation of HF7c carrying pGBT9-PBR
T1 construct: Bait of the yeast two-hybrid screen, expressed in yeast HF7c; also called pGBT-PBR; fusion PBR protein
Excerpt: The Clontech […] two-hybrid system was applied in this study (detailed in manufacturer's instruction book). Briefly, the yeast reporter host strain HF7c was simultaneously cotransformed with both pGBT-PBR and the mouse testis cDNA library in pGAD10 plasmid by using lithium acetate high-efficiency method (Gietz, D. et al., 1992, *Nucleic Acids Res.* 20, 1425). HIS positive clones were further selected by colony lift filter assay for β-galactosidase activity. Plasmid DNA was rescued in *Escherichia coli* DH5? from yeast cells. Plasmids were retransformed into yeast HF7c cells with plasmid pGBT-PBR to test for histidine prototrophy and β-galactosidase activity (Clontech manual). The cDNA inserts from the positive clones were sequenced. The full length PAP7 cDNA was obtained by using 5' and 3' RACE kit from kit (CLONTECH, Palo Alto, Calif.).
Library plasmids from these transformants were rescued in *E. coli* strain DH5α. Both the His+ phenotype and the expression of β-galactosidase were confirmed by a second-round transformation of strain HF7c carrying pGBT9-PBR (Table 1).

Sequence of PBR (P50637 whole entry): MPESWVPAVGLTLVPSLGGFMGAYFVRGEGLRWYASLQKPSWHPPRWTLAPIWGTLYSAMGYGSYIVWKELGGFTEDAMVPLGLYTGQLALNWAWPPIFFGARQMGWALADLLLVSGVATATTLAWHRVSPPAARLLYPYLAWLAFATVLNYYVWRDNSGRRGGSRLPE

B1: PAP7: PBR associated protein 7, SEQ ID NO:7; in transfection a partial sequence including the PBR binding domain in pSVzeo (protein, listed as Mus musculus)
chain: RPRRPKVELFTVVTRVKVVLFLNQLSLCKLVKDGKAFHPTYEEKLKFVALHKQVLLGPYNPDTSPEVGFFDVLGNDRRREWAALGNMSKEDAMVEFVKLLNKCCPLLSAYVASHRIEKEEEEKRRKAEEERRQREEEERERLQKEEEKRKREEEDRLRREEEERRRIEEERLRLEQQKQQIMAALNSQTAVQFQQYAAQQYPGNYEQQQILIRQLQEQHYQQYKHQAEQTQPAQQQAALQKQQEVVMAGASLPASSKVNTAGASDTLSVNGQAKTHTENSEKVLEPEAAEEALENGPKDSLPVIAAPSMWTRPQIKDFKEKIRQDADSVITVRRGEVVTVRVPTHEEGSYLFWEFATDSYDIGFGVYFEWTDSPNAAVSVHVSESSDEEEEEEENVTCEEKAKKNANKPLLDEIVPVYRRDCHEEVYAGSHQYPGRGVYLLKFDNSYSLWRSKSVYYRVYYTR
MA-10 cells
  progesterone production in response to hormonal (hCG) stimulation: significantly reduced
MA-10 cells; listed as PAP7 fragment
  progesterone production in response to hormonal (hCG) stimulation: significantly inhibited

B2: PAP20: PBR associated protein, polypeptide of 196 amino acids, SEQ ID NO:10; predominantly expressed in testis (protein, listed as Mus musculus)
chain: NSRPRRPQKRKRGAEVLAAQIVQKTRLERKKQEASVSKDAPVPTNTKRAKKQEKSPGRIASQSKPPMKKSPQKRKVNVARGRRNTRKQLQPAEKEIALHLQSEISSDGQKDGLNLSTSQQESISMIPKGPPENSVISCDSQALNMLADLALSSAAASIPSCKPRNLPCVSDLPRNNVLLTKENPLLGASDHEYHKG
PBR
  affinity of ligand binding to PBR: increased the affinity of ligand binding

B3: PAP20 (PBR associated protein 20), two-hybrid clone in pGAD10 (other)
chain: ANFNQSGNIADSSLSFTFTNSSNGPNLITTQTNSQALSQPIASSNVHDNFMNNEITASKIDDGNNSKPLSPGWTDQTAYNAFGITTGMFNTTTMDDVYNYLFDDEDTPPNPKKENSRPRRPQKRKRGAEVLAAQIVQKTRLERKKQEASVSKDAPVPTNTKRAKKQEKSPGRIASQSKPPMKKSPQKRKVNVARGRRNTRKQLQPAEKEIALHLQSEISSDGQKDGLNLSTSQQESISMIPKGPPENSVISCDSQALNMLADLALSSAAASIPSCKPRNLPCVSDLPRNNVLLTKENPLLGASDHEYHKG
notes: range 768-881
[1]
  binding result: binds
